# Results from patent US20260199576A1 (KYOTO UNIVERSITY, published 2026).
# Numbering of substitutions follows the chain as printed.
# B1: UC antibody 7 (antibody, V domains shown)
# VH: VQLVESGGGVVQPGRSLRLSCAASGFTFSSYGMHWVRQAPGKGLEWVAFISYDGINKYYADSVKGRFTISRDNSKDTLYLQMNSLRAEDTAVYYCAKVIPRIRGSGDKAGIKDYYYYGMDVWGQGTTVTVSS
# VL: EIVLTQSPATLSLSPGERATLSCRASQSVSSYLAWYQQKPGQAPRLLIYDASNRATGIPARFSGSGSGTDFTLTISSLEPEDFAVYYCQQRSNWLTFGGGTKVEIK
# notes: Human monoclonal IgG from a UC patient, expressed in CHO cells
# B2: UC antibody 2 (antibody, V domains shown)
# VH: EVQLVESGGGLVKPGGSLRVSCVVSGFTITNAWMSWVRQAPGKGLEWVGRSKSKTDGGTTDYIAPVKGRFTISRDDSKNTLYLEMNSLKTEDTAVYYCATDRPLKLRGRDYNYYVMDVWGQGTTVTVSS
# VL: DIQMTQSPSSLSASVGDRVTITCRASQSIARSLNWYQQKPGKAPNLLIYAASTLQSGVPSRFSGSGSGTDFTLTIGSLQPEDFATYSCQQSSSSPLTFGGGTRVEIK
# notes: as for B1
# B3: UC antibody 3 (antibody, V domains shown)
# VH: QVQLVESGGGVVQPGRSLRVSCAASGFTFSIYGMHWVRQAPGKGLEWVAVISSDGTNQYYADSVKGRFTISRDNSNNTVYLQMNSLGGEDTAVYYCAKDRGRRGDSGWYRHFDYWGQGTLVTVSS
# VL: QSVLTQPPSVSAAPGQKVTISCSGSSSNNGNNYVSWYQQVPGTAPKLLIYDNNKRPSGIPDRFSGSKSGTSATLGITGLQTGDEADYYCGTWDSSLSAVVFGGGTKLTVL
# notes: as for B1
# B4: UC antibody 5 (antibody, V domains shown)
# VH: QVQLVQSGAEVKKPGASVKVSCKASGHTFSSFGISWVRQAPGQGLEWMGWISAYNGNTNSAQKFQGRVTMTTDTSTSTAYMELRSLRSDDTAVYYCARDRGFRGDTAMIKGGMDVWGQGTTVTVSS
# VL: VLTQPPSVSVSPGQTASITCSGDKLGDKYACWYQQKSGQAPVLVIYQDSKRPSGIPERFSGSNSGNTATLTISGTQAMDEADYYCQAWDSSTALVFGGGTKLTVL
# notes: as for B1
# B5: UC antibody 6 (antibody, V domains shown)
# VH: B4 VH
# VL: QSVLTQPPSVSGAPGQRVTISCTGSSSTIGANNDVHWYQQLPGTAPKLLIYGNKNRPSGVSDRFSGSKSGTSASLAITGLQAEDEADYYCQSYDSSLSDLYVFGTGTKVTVL
# notes: as for B1
# B6: UC antibody 4 (antibody, V domains shown)
# VH: B4 VH with H27Y
# VL: SYELTQPPSVSVSPGQTARITCSGDALPKQYAYWYQQKPGQAPVLVIYKDSERPSGIPERFSGSSSGTMATLTISGAQVEDEGDYYCSSTDSNSQRVFGGGTKLTVL
# notes: as for B1
# B7: PSC antibody 1 (antibody, V domains shown)
# VH: B4 VH
# VL: QSALTQPASVSGSPGQSITISCTGTSSDVGGYNYVSWYQQHPGKAPQLIIYDVSKRPSGVSNRFSGSRSGNTASLTISGLQAEDEADYYCSSYTSSSTYVFGTGTKVTVL
# notes: Human monoclonal IgG from a PSC patient, expressed in CHO cells
# B8: Peptide RGDS (peptide)
# peptide: RGDS
# notes: also called RGD peptide; RGD motif
# B9: UC antibody 1 (antibody, V domains shown)
# VH: QVQLVESGGGVVQPGRSLRLSCAASGFTFSSYGMHWVRQAPGKGLEWVAFISYDGINKYYADSVKGRFTISRDNSKDTLYLQMNSLRAEDTAVYYCAKVIPRIRGSGDKAGIKDYYYYGMDVWGQGTTVTVSS
# VL: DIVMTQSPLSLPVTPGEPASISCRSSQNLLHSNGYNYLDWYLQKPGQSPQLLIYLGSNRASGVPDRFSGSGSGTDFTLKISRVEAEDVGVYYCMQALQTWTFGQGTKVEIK
# notes: Human monoclonal IgG from a UC patient, expressed in CHO cells; also called monoclonal autoantibody derived from an ulcerative colitis patient; anti-integrin αvβ6 antibody (UC antibody 1)
# B10: UC antibody 9 (antibody, V domains shown)
# VH: B9 VH
# VL: B3 VL with N29I, V40L
# notes: as for B1
# B11: UC antibody 8 (antibody, V domains shown)
# VH: B9 VH with G33A, S75P, Q125R
# VL: not shown
# notes: as for B1
# Assays:
# [1] = target: T1, Biotinylated human integrin αvβ6 (ACROBiosystems, product number IT6-H82E4) (human, UniProt P06756 31-992; P18564 22-707, biotinylated (Avi tag at the C-terminus) ; Biotin on the Avi tag at the C-terminus of the αv chain; the tag is not in the letters.); assay: BLI (Octet RED96), biotinylated integrin αvβ6 on biosensor, antibody in solution
# T1 construct: Bought heterodimer; also called biotinylated integrin αvβ6; not shown: basic tail on the β6 chain
# T1 sequence (P06756 31-992 limits assumed, chain 1 of 2): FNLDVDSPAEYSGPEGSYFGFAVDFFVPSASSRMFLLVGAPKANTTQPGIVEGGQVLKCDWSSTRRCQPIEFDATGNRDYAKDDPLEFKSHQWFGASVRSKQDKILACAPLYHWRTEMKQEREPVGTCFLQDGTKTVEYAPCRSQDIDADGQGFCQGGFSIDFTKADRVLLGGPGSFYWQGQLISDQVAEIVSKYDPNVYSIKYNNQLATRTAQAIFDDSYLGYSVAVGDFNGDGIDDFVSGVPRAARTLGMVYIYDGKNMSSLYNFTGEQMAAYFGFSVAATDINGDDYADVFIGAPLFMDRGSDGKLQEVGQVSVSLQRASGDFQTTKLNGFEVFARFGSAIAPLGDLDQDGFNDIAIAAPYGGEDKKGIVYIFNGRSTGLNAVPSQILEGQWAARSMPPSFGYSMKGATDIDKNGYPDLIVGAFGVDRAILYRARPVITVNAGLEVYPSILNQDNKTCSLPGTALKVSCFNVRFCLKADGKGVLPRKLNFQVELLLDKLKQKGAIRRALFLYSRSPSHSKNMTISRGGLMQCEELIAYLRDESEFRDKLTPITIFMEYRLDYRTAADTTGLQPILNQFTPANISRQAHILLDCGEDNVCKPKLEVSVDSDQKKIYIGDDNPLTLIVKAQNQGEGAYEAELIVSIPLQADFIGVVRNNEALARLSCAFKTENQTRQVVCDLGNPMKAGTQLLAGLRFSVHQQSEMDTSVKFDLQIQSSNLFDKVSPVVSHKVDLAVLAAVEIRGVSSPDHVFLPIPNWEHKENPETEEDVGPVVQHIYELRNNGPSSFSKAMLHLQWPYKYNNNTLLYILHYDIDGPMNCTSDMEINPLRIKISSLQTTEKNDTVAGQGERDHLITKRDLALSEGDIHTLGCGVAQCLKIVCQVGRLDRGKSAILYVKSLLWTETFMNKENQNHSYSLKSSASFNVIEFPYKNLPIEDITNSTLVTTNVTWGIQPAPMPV
# T1 sequence (P18564 22-707 limits assumed, chain 2 of 2): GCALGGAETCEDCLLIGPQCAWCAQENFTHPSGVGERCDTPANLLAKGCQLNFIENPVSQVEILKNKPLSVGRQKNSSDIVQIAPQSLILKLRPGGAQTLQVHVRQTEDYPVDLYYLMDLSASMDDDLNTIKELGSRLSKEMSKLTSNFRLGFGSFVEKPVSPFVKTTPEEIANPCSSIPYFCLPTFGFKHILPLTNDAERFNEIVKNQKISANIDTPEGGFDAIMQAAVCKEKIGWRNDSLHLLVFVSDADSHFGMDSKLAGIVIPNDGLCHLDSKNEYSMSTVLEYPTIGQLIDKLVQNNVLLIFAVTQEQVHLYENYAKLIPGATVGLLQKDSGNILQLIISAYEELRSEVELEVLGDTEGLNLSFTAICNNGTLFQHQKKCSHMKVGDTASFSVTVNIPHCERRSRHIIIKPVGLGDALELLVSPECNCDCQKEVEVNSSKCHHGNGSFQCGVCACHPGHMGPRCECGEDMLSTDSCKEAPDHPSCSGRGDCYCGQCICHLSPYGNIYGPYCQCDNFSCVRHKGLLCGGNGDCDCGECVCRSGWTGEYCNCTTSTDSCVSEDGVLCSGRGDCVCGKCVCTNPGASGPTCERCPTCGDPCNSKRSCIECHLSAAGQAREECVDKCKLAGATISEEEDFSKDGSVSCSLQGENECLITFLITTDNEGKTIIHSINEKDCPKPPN
# Procedure: Next, the binding affinity of the obtained anti-integrin αvβ6 monoclonal antibodies derived from UC or PSC patients was determined. The KD value was measured by biolayer interferometry using Octet RED96 (Sartorius). A 100 nM solution of the antibody, and serially diluted solutions of biotinylated integrin αvβ6 protein in the range of 200 to 6.25 nM were prepared using a buffer containing 20 mM Tris, 150 mM NaCl, 1 mM CaCl₂, 1 mM MgCl₂, 0.1% human serum albumin (014-27604; Fujifilm Wako Pure Chemical Industries, Ltd.) and 0.02% Tween 20 (1610781; Bio-Rad), and added to a 96-well plate (Greiner; 655209) at 200 μL/well. The biotinylated integrin αvβ6 was allowed to bind for 5 minutes to a biosensor (18-5136; Sartorius) soaked in the buffer. After washing of the biosensor, the biosensor was immersed in each antibody solution for 5 minutes (binding reaction). Then, the sensor was immersed in the buffer solution for 1 minute (dissociation reaction). The binding dissociation constant (KD value) between “integrin αvβ6-each monoclonal antibody” was determined using the analysis software (Octet BLI Analysis) attached to the device.
# [2] = target: T2, human integrin αvβ6 (ACROBiosystems, product number IT6-H52E1) (human, UniProt P06756 31-992; P18564 22-707); assay: competition ELISA: integrin αvβ6 coated, peptide RGDS 0-100 µg/mL added together with PSC patient IgG 1:100 (competitor); bound human IgG detected (A450)
# T2 construct: also called histidine-tagged integrin αvβ6; histidine-tagged extracellular domain protein of integrin αvβ6; not shown: linker and basic tail on the β6 chain
# T2 sequence (P06756 31-992 limits assumed, chain 1 of 2): as the sequence (P06756 31-992 limits assumed, chain 1 of 2) above
# T2 sequence (P18564 22-707 limits assumed, chain 2 of 2): as the sequence (P18564 22-707 limits assumed, chain 2 of 2) above
# Procedure: A microtiter plate was coated with 100 μL/well of 2 μg/mL integrin αvβ6 overnight at 4° C., and then blocked. Peptide RGDS (SEQ ID NO: 9: Arg-Gly-Asp-Ser) or RGES (SEQ ID NO: 10: Arg-Gly-Glu-Ser) as RGD motif or RGE motif (control) was added together with 100 μL of patient-derived IgG dilution (1:100) to the plate, and the plate was incubated at room temperature for 60 minutes. After washing, 100 μl/well of an HRP-labeled anti-human IgG antibody (50,000-fold dilution; ab6759; Abcam) was added to the plate and the plate was incubated at room temperature for 60 minutes. After washing, the plate was incubated with 3,3′,5,5′-tetramethylbenzidine for 7 minutes, and an absorbance density (OD value) at 450 nm was measured to detect human IgG bound to integrin αvβ6 on the solid phase.
# [3] = target: T2, human integrin αvβ6 (ACROBiosystems, …); assay: blocking ELISA: integrin αvβ6 coated, antibody added, then fibronectin 2 µg/mL; bound fibronectin detected, inhibition effect (%)
# Procedure: Furthermore, a competitive assay with fibronectin for binding to integrin αvβ6 was performed to confirm the function of the obtained monoclonal antibodies. Briefly, a 96-well microtiter plate was coated with 150 μL/well of 2 μg/mL human integrin αvβ6 (ACROBiosystems, Cat. No. IT6-H52E1) overnight at 4° C., then blocked and incubated with 120 μL of monoclonal antibodies (0.0001-10 μg/mL) for 60 min at room temperature. After washing, the plate was incubated with 100 μL of 2 μg/mL fibronectin (FC010; MilliporeSigma, Burlington, MA) for 60 minutes at room temperature. After washing, an anti-fibronectin antibody (1:5000 dilution; ab2413; Abcam) was added to the plate, and the plate was incubated for 60 min at room temperature. […] After washing, the plate was incubated with 3,3′,5,5′-tetramethylbenzidine for 10 minutes, and the absorbance at 450 nm was measured to detect fibronectin bound to integrin αvβ6 on the solid phase. […] To calculate the binding inhibition rate, blank wells coated with integrin αvβ6 were incubated with fibronectin in the absence of antibody, and the optical density (OD) at 450 nm was measured in the same manner as above. The binding inhibition rate (%) was calculated according to the following formula. […]
# [4] = target: Integrin αvβ1 (ACRO Biosystems, IT1-H82W6) (UniProt P06756 31-992; P05556 21-728); assay: adsorption test: UC antibody 1 150 ng, His-tagged integrin 5 or 25 µg/mL and anti-His-tag magnetic agarose; remaining antibody measured by ELISA, adsorption rate
# Procedure: (§1) The concentration of anti-integrin αvβ6 antibodies contained in the recovered solution was measured by ELISA. A microtiter plate was coated with 100 μL/well of 2 μg/mL integrin αvβ6 overnight at 4° C., followed by washing and blocking. After washing, the recovered reaction solution was diluted 10-fold and added at 100 µL/well to the plate, and the plate was incubated at room temperature for 60 minutes. After washing, an HRP-labeled anti-human IgG antibody (50,000-fold dilution; ab6759; Abcam) was added at 100 μL/well to the plate, and the plate was incubated at room temperature for 60 minutes. After washing, the plate was incubated with 3,3′,5,5′-tetramethylbenzidine for 7 minutes, and the absorbance density (OD value) at 450 nm was measured to detect human IgG bound to integrin αvβ6 on the solid phase.
# (§2) Anti-histidine tag antibody-labeled magnetic agarose (MBL, D291-10) in the amount of 10 μL (5 μg of anti-his tag antibody), 150 ng of the monoclonal autoantibody derived from an ulcerative colitis patient prepared in Example 2 (UC antibody 1 shown in Table 1), and 5 μg/mL or 25 μg/mL of any of integrins as mentioned below were mixed and reacted by inversion mixing in a total of 500 μL of solution at 4° C. for 12 hours. The solution after the reaction was recovered. As a control, a mixture to which no integrin was added (a mixture of the above-mentioned agarose and autoantibody only) was used to perform the similar reaction. [0157] Integrin αvβ1 (ACRO Biosystems, IT1-H82W6) [0158] Integrin αvβ3 (ACRO Biosystems, IT3-H52E3) [0159] Integrin αvβ5 (ACRO Biosystems, IT5-H52W5) [0160] Integrin αvβ6 (ACRO Biosystems, IT6-H52E1) [0161] Integrin αvβ8 (ACRO Biosystems, IT8-H52W4)
# (§3) In the same manner as described in Example 7, the concentration of anti-integrin αvβ6 antibody contained in the recovered solution was determined, and the adsorption rate of anti-integrin αvβ6 antibody in the antibody adsorption reaction was calculated.
# [5] = target: Integrin αvβ3 (ACRO Biosystems, IT3-H52E3) (UniProt P06756 31-992; P05106 27-718); assay: as above
# Sequence of Integrin αvβ3 (ACRO Biosystems, IT3-H52E3) (P06756 31-992, chain 1 of 2): as the sequence (P06756 31-992 limits assumed, chain 1 of 2) above
# Sequence of Integrin αvβ3 (ACRO Biosystems, IT3-H52E3) (P05106 27-718, chain 2 of 2): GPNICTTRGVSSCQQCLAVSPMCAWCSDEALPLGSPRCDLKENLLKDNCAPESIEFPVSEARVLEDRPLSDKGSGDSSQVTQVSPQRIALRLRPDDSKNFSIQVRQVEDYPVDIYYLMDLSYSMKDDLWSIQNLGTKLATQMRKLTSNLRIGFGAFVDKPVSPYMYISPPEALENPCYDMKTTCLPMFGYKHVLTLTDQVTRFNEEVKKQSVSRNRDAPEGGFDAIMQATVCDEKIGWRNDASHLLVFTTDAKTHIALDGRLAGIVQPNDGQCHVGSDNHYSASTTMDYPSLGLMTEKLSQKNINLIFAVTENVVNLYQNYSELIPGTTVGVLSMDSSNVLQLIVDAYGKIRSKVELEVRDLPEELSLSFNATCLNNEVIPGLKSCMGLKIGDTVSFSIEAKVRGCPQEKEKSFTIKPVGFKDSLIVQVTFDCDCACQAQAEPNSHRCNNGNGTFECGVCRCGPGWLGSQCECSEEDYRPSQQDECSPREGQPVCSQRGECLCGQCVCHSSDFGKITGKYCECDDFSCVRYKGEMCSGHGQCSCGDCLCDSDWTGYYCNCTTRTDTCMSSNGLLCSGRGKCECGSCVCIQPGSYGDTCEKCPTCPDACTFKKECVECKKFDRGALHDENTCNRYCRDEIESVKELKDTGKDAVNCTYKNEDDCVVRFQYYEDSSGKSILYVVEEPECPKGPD
# Procedure: as §1, §2, §3
# [6] = target: Integrin αvβ5 (ACRO Biosystems, IT5-H52W5) (UniProt P06756 31-992; P18084 24-719); assay: as above
# Procedure: as §1, §2, §3
# [7] = target: Integrin αvβ8 (ACRO Biosystems, IT8-H52W4) (UniProt P06756 31-992; P26012 43-684); assay: as above
# Procedure: as §1, §2, §3
Binder,Kd [1] [nM],other results
B1,5.18,–
B2,1.95,–
B3,15,–
B4,8.25,–
B5,20.8,–
B6,3.15,–
B7,8.91,–
B8,–,binding result [2]: binds
B9,4.54,IC50 (read off the curve) [3]: ~0.2 µg/mL; binding result [4]: no binding (tested: 25 µg/mL); binding result [5]: no binding (tested: 25 µg/mL); binding result [6]: no binding (tested: 25 µg/mL); binding result [7]: no binding (tested: 25 µg/mL)
B10,5.96,–
B11,10.6,–
